Read-outs that look alike come from different tables or passages of the source.

The record followed here is patent US20230002460A1 (YUHAN, published 2023).

For assay [1], the target named is T1, GDF15 receptors GFRAL and RET, overexpressed together on HEK293 cells (UniProt Q6UXV0 19-394; P07949 29-1114, limits assumed). Description: cell-based or functional assay.
Assay [2] has as its target T1, GDF15 receptors GFRAL and RET, …. Put plainly: cell-based or functional assay. This is another data set of the same source.

T1 sequence (Q6UXV0 19-394 limits assumed, chain 1 of 2): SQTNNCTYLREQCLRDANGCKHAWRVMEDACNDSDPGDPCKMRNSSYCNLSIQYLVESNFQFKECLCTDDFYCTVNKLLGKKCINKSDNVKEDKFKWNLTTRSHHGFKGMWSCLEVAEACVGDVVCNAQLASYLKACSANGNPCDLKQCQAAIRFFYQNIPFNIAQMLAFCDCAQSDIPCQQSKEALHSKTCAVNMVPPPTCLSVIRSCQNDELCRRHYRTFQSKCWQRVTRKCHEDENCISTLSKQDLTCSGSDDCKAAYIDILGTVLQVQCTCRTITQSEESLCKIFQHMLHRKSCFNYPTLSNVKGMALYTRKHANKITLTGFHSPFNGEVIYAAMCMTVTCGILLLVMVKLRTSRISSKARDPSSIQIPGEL
T1 sequence (P07949 29-1114 limits assumed, chain 2 of 2): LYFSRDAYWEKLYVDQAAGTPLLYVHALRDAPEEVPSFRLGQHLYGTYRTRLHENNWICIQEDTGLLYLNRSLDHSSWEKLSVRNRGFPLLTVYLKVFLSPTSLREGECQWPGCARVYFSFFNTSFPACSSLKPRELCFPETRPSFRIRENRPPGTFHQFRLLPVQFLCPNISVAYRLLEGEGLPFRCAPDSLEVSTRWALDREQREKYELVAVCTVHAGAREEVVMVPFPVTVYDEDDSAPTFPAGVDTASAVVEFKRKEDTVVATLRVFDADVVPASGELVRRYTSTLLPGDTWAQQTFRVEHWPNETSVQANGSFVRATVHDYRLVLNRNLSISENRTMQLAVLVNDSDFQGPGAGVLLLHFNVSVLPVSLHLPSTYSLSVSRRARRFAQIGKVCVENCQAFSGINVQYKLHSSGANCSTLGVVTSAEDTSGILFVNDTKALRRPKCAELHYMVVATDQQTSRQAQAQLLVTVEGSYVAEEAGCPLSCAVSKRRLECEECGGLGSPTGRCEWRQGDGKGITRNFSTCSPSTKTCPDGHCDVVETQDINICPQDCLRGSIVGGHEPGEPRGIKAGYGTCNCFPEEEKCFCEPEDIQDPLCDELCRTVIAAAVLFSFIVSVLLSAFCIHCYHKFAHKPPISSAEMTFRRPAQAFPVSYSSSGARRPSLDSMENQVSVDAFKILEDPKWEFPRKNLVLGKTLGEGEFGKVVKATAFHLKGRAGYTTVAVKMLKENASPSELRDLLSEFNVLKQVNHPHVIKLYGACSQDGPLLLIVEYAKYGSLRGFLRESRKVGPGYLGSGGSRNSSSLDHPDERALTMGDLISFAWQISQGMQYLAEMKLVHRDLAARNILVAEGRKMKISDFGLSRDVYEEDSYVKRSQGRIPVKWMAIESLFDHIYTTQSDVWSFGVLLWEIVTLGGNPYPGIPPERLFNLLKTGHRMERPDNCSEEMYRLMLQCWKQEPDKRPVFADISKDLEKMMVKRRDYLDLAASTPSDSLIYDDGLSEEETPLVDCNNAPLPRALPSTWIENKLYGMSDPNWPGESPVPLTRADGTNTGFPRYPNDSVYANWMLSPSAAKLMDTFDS

B1: long-acting GDF15 fusion protein (dimer) FM2 + Fc_hole (ΔN3, G4N, D5S, H6T) (Fc fusion)
chain 1: APALAGGPSVFLFPPKPKDTLMISRTPEVTCVVVDVSHEDPEVKFNWYVDGVEVHNAKTKPREEQYNSTYRVVSVLTVLHQDWLNGKEYKCKVSNKALPAPIEKTISKAKGQPREPQVYTLPPSREEMTKNQVSLWCLVKGFYPSDIAVEWESNGQPENNYKTTPPVLDSDGSFFLYSKLTVDKSRWQQGNVFSCSVMHEALHNHYTQKSLSLSPGKGGGGSGGGGSGGGGSGGGGSGGGGSNSTCPLGPGRCCRLHTVRASLEDLGWADWVLSPREVQVTMCIGACPSQFRAANMHAQIKTSLHRLKPDTVPAPCCVPASYNPMVLIQKTDTGVSLQTYDDLLAKDCHCI
chain 2: not shown
By EC50 is commonly meant the concentration that produces a half-maximal response. A high value points to weaker potency. For B1, in assay [1], the concentration giving a half-maximal response (EC50) is 3.9 nM and the “Emax (%)” value amounted to 100%.

B2: long-acting GDF15 fusion protein (dimer) FM1 + Fc_hole (ΔN3, WS insertion, G4N, D5S, H6T) (Fc fusion)
chain 1: APALAGGPSVFLFPPKPKDTLMISRTPEVTCVVVDVSHEDPEVKFNWYVDGVEVHNAKTKPREEQYNSTYRVVSVLTVLHQDWLNGKEYKCKVSNKALPAPIEKTISKAKGQPREPQVYTLPPSREEMTKNQVSLWCLVKGFYPSDIAVEWESNGQPENNYKTTPPVLDSDGSFFLYSKLTVDKSRWQQGNVFSCSVMHEALHNHYTQKSLSLSPGKGGGGSGGGGSGGGGSGGGGSGGGGSWSNSTCPLGPGRCCRLHTVRASLEDLGWADWVLSPREVQVTMCIGACPSQFRAANMHAQIKTSLHRLKPDTVPAPCCVPASYNPMVLIQKTDTGVSLQTYDDLLAKDCHCI
chain 2: not shown
In the case of B2, in assay [1], the concentration for a half-maximal effect (EC50) turned out to be 1.7 nM and the “Emax (%)” value stood at 100%.

B3: long-acting GDF15 fusion protein (dimer) FM11-3 + Fc_hole (ΔN3, G4N, D5S, H6T, S64R; linker GS(G4S)7) (Fc fusion)
chain 1: APEAAGGPSVFLFPPKPKDTLMISRTPEVTCVVVDVSHEDPEVKFNWYVDGVEVHNAKTKPREEQYASTYRVVSVLTVLHQDWLNGKEYKCKVSNKALPAPIEKTISKAKGQPREPQVYTLPPSREEMTKNQVSLWCLVKGFYPSDIAVEWESNGQPENNYKTTPPVLDSDGSFFLYSKLTVDKSRWQQGNVFSCSVMHEALHNHYTQKSLSLSPGKGSGGGGSGGGGSGGGGSGGGGSGGGGSGGGGSGGGGSNSTCPLGPGRCCRLHTVRASLEDLGWADWVLSPREVQVTMCIGACPSQFRAANMHAQIKTRLHRLKPDTVPAPCCVPASYNPMVLIQKTDTGVSLQTYDDLLAKDCHCI
chain 2: APEAAGGPSVFLFPPKPKDTLMISRTPEVTCVVVDVSHEDPEVKFNWYVDGVEVHNAKTKPREEQYASTYRVVSVLTVLHQDWLNGKEYKCKVSNKALPAPIEKTISKAKGQPREPQVYTLPPSREEMTKNQVSLSCAVKGFYPSDIAVEWESNGQPENNYKTTPPVLDSDGSFFLVSKLTVDKSRWQQGNVFSCSVMHEALHNHYTQKSLSLSPGK
In the case of B3, in assay [2], the “EC50” value is 7.8 nM and the “Emax (%)” value was 81%.

B4: long-acting GDF15 fusion protein (dimer) FM11-6 + Fc_hole (ΔN3, G4N, D5S, H6T, S64R; linker GS(EAAAK)5) (Fc fusion)
chain 1: APEAAGGPSVFLFPPKPKDTLMISRTPEVTCVVVDVSHEDPEVKFNWYVDGVEVHNAKTKPREEQYASTYRVVSVLTVLHQDWLNGKEYKCKVSNKALPAPIEKTISKAKGQPREPQVYTLPPSREEMTKNQVSLWCLVKGFYPSDIAVEWESNGQPENNYKTTPPVLDSDGSFFLYSKLTVDKSRWQQGNVFSCSVMHEALHNHYTQKSLSLSPGKGSEAAAKEAAAKEAAAKEAAAKEAAAKNSTCPLGPGRCCRLHTVRASLEDLGWADWVLSPREVQVTMCIGACPSQFRAANMHAQIKTRLHRLKPDTVPAPCCVPASYNPMVLIQKTDTGVSLQTYDDLLAKDCHCI
chain 2: B3 chain 2
For B4, in assay [2], the “EC50” value was 6.8 nM and the “Emax (%)” value was 80.3%.

B5: long-acting GDF15 fusion protein (dimer) FM11-4 + Fc_hole (ΔN3, G4N, D5S, H6T, S64R; linker GS(EEEA)6) (Fc fusion)
chain 1: APEAAGGPSVFLFPPKPKDTLMISRTPEVTCVVVDVSHEDPEVKFNWYVDGVEVHNAKTKPREEQYASTYRVVSVLTVLHQDWLNGKEYKCKVSNKALPAPIEKTISKAKGQPREPQVYTLPPSREEMTKNQVSLWCLVKGFYPSDIAVEWESNGQPENNYKTTPPVLDSDGSFFLYSKLTVDKSRWQQGNVFSCSVMHEALHNHYTQKSLSLSPGKGSEEEAEEEAEEEAEEEAEEEAEEEANSTCPLGPGRCCRLHTVRASLEDLGWADWVLSPREVQVTMCIGACPSQFRAANMHAQIKTRLHRLKPDTVPAPCCVPASYNPMVLIQKTDTGVSLQTYDDLLAKDCHCI
chain 2: B3 chain 2
Consider B5, for which, in assay [2], the midpoint of the response, the EC50, lay at 45.4 nM and the “Emax (%)” value amounted to 105%.

B6: long-acting GDF15 fusion protein (dimer) FM9-4 + Fc_hole (ΔN2, S64R; linker GS(EEEA)6) (Fc fusion)
chain 1: APEAAGGPSVFLFPPKPKDTLMISRTPEVTCVVVDVSHEDPEVKFNWYVDGVEVHNAKTKPREEQYASTYRVVSVLTVLHQDWLNGKEYKCKVSNKALPAPIEKTISKAKGQPREPQVYTLPPSREEMTKNQVSLWCLVKGFYPSDIAVEWESNGQPENNYKTTPPVLDSDGSFFLYSKLTVDKSRWQQGNVFSCSVMHEALHNHYTQKSLSLSPGKGSEEEAEEEAEEEAEEEAEEEAEEEANGDHCPLGPGRCCRLHTVRASLEDLGWADWVLSPREVQVTMCIGACPSQFRAANMHAQIKTRLHRLKPDTVPAPCCVPASYNPMVLIQKTDTGVSLQTYDDLLAKDCHCI
chain 2: B3 chain 2
Regarding B6, in assay [2], the 50% effective concentration (EC50) worked out at 23.6 nM and the “Emax (%)” value turned out to be 128%.

B7: long-acting GDF15 fusion protein (dimer) FM9-6 + Fc_hole (ΔN2, S64R; linker GS(EAAAK)5) (Fc fusion)
chain 1: APEAAGGPSVFLFPPKPKDTLMISRTPEVTCVVVDVSHEDPEVKFNWYVDGVEVHNAKTKPREEQYASTYRVVSVLTVLHQDWLNGKEYKCKVSNKALPAPIEKTISKAKGQPREPQVYTLPPSREEMTKNQVSLWCLVKGFYPSDIAVEWESNGQPENNYKTTPPVLDSDGSFFLYSKLTVDKSRWQQGNVFSCSVMHEALHNHYTQKSLSLSPGKGSEAAAKEAAAKEAAAKEAAAKEAAAKNGDHCPLGPGRCCRLHTVRASLEDLGWADWVLSPREVQVTMCIGACPSQFRAANMHAQIKTRLHRLKPDTVPAPCCVPASYNPMVLIQKTDTGVSLQTYDDLLAKDCHCI
chain 2: B3 chain 2
With B7, in assay [2], the “EC50” value stood at 6.3 nM and the “Emax (%)” value was determined as 100%.

B8: long-acting GDF15 fusion protein (dimer) FM9-3 + Fc_hole (ΔN2, S64R; linker GS(G4S)7) (Fc fusion)
chain 1: APEAAGGPSVFLFPPKPKDTLMISRTPEVTCVVVDVSHEDPEVKFNWYVDGVEVHNAKTKPREEQYASTYRVVSVLTVLHQDWLNGKEYKCKVSNKALPAPIEKTISKAKGQPREPQVYTLPPSREEMTKNQVSLWCLVKGFYPSDIAVEWESNGQPENNYKTTPPVLDSDGSFFLYSKLTVDKSRWQQGNVFSCSVMHEALHNHYTQKSLSLSPGKGSGGGGSGGGGSGGGGSGGGGSGGGGSGGGGSGGGGSNGDHCPLGPGRCCRLHTVRASLEDLGWADWVLSPREVQVTMCIGACPSQFRAANMHAQIKTRLHRLKPDTVPAPCCVPASYNPMVLIQKTDTGVSLQTYDDLLAKDCHCI
chain 2: B3 chain 2
Turning to B8, in assay [2], the 50% effective concentration (EC50) is 9.3 nM and the “Emax (%)” value amounted to 95.6%.

B9: long-acting GDF15 fusion protein (dimer) FM11-5 + Fc_hole (ΔN3, G4N, D5S, H6T, S64R; linker GSGGSS(PT)10) (Fc fusion)
chain 1: APEAAGGPSVFLFPPKPKDTLMISRTPEVTCVVVDVSHEDPEVKFNWYVDGVEVHNAKTKPREEQYASTYRVVSVLTVLHQDWLNGKEYKCKVSNKALPAPIEKTISKAKGQPREPQVYTLPPSREEMTKNQVSLWCLVKGFYPSDIAVEWESNGQPENNYKTTPPVLDSDGSFFLYSKLTVDKSRWQQGNVFSCSVMHEALHNHYTQKSLSLSPGKGSGGSSPTPTPTPTPTPTPTPTPTPTNSTCPLGPGRCCRLHTVRASLEDLGWADWVLSPREVQVTMCIGACPSQFRAANMHAQIKTRLHRLKPDTVPAPCCVPASYNPMVLIQKTDTGVSLQTYDDLLAKDCHCI
chain 2: B3 chain 2
Regarding B9, in assay [2], the “EC50” value stood at 5.1 nM and the “Emax (%)” value was found to be 68.2%.

B10: long-acting GDF15 fusion protein (dimer) FM9-1 + Fc_hole (ΔN2, S64R; linker GS(G4S)3) (Fc fusion)
chain 1: APEAAGGPSVFLFPPKPKDTLMISRTPEVTCVVVDVSHEDPEVKFNWYVDGVEVHNAKTKPREEQYASTYRVVSVLTVLHQDWLNGKEYKCKVSNKALPAPIEKTISKAKGQPREPQVYTLPPSREEMTKNQVSLWCLVKGFYPSDIAVEWESNGQPENNYKTTPPVLDSDGSFFLYSKLTVDKSRWQQGNVFSCSVMHEALHNHYTQKSLSLSPGKGSGGGGSGGGGSGGGGSNGDHCPLGPGRCCRLHTVRASLEDLGWADWVLSPREVQVTMCIGACPSQFRAANMHAQIKTRLHRLKPDTVPAPCCVPASYNPMVLIQKTDTGVSLQTYDDLLAKDCHCI
chain 2: B3 chain 2
For B10, in assay [2], the “EC50” value amounted to 9 nM and the “Emax (%)” value was 97.6%.

B11: long-acting GDF15 fusion protein (dimer) FM9-2 + Fc_hole (ΔN2, S64R; linker GS(G4S)5) (Fc fusion)
chain 1: APEAAGGPSVFLFPPKPKDTLMISRTPEVTCVVVDVSHEDPEVKFNWYVDGVEVHNAKTKPREEQYASTYRVVSVLTVLHQDWLNGKEYKCKVSNKALPAPIEKTISKAKGQPREPQVYTLPPSREEMTKNQVSLWCLVKGFYPSDIAVEWESNGQPENNYKTTPPVLDSDGSFFLYSKLTVDKSRWQQGNVFSCSVMHEALHNHYTQKSLSLSPGKGSGGGGSGGGGSGGGGSGGGGSGGGGSNGDHCPLGPGRCCRLHTVRASLEDLGWADWVLSPREVQVTMCIGACPSQFRAANMHAQIKTRLHRLKPDTVPAPCCVPASYNPMVLIQKTDTGVSLQTYDDLLAKDCHCI
chain 2: B3 chain 2
For the molecule B11, in assay [2], the “EC50” value turned out to be 9.5 nM and the “Emax (%)” value is 111%.

B12: long-acting GDF15 fusion protein (dimer) FM9-5 + Fc_hole (ΔN2, S64R; linker GSGGSS(PT)10) (Fc fusion)
chain 1: APEAAGGPSVFLFPPKPKDTLMISRTPEVTCVVVDVSHEDPEVKFNWYVDGVEVHNAKTKPREEQYASTYRVVSVLTVLHQDWLNGKEYKCKVSNKALPAPIEKTISKAKGQPREPQVYTLPPSREEMTKNQVSLWCLVKGFYPSDIAVEWESNGQPENNYKTTPPVLDSDGSFFLYSKLTVDKSRWQQGNVFSCSVMHEALHNHYTQKSLSLSPGKGSGGSSPTPTPTPTPTPTPTPTPTPTNGDHCPLGPGRCCRLHTVRASLEDLGWADWVLSPREVQVTMCIGACPSQFRAANMHAQIKTRLHRLKPDTVPAPCCVPASYNPMVLIQKTDTGVSLQTYDDLLAKDCHCI
chain 2: B3 chain 2
With B12, in assay [2], the midpoint of the response, the EC50, lay at 5.3 nM and the “Emax (%)” value turned out to be 100%.

B13: long-acting GDF15 fusion protein (dimer) FM3 + Fc_hole (ΔN2, R21N) (Fc fusion)
chain 1: APALAGGPSVFLFPPKPKDTLMISRTPEVTCVVVDVSHEDPEVKFNWYVDGVEVHNAKTKPREEQYNSTYRVVSVLTVLHQDWLNGKEYKCKVSNKALPAPIEKTISKAKGQPREPQVYTLPPSREEMTKNQVSLWCLVKGFYPSDIAVEWESNGQPENNYKTTPPVLDSDGSFFLYSKLTVDKSRWQQGNVFSCSVMHEALHNHYTQKSLSLSPGKGGGGSGGGGSGGGGSGGGGSGGGGSNGDHCPLGPGRCCRLHTVNASLEDLGWADWVLSPREVQVTMCIGACPSQFRAANMHAQIKTSLHRLKPDTVPAPCCVPASYNPMVLIQKTDTGVSLQTYDDLLAKDCHCI
chain 2: not shown
With B13, in assay [1], a half-maximal effect (EC50) was put at 3.3 nM and the “Emax (%)” value was found to be 100%.
